We go through 7 substances from the supplement of paper PMC5998384.

Data set [1] relates to HeLa Kyoto. The experiment in a line: solubility change mitosis vs G1/S (difference of NP-40 vs SDS log2 ratios) (log2 ratio difference); higher = more soluble in mitosis.
Data set [2] has as its system HeLa Kyoto. The data set is described as follows: thermal stability score vs G1/S (z-score of summed log2 fold changes over temperatures); higher = more thermally stable than in G1/S.
The subject of data set [3] is HeLa Kyoto. The data set is described as follows: melting temperature (median over replicates), in situ; higher = more thermally stable.
In data set [4] the test system is HeLa Kyoto. The experiment in a line: solubility in G1/S (NP-40 vs SDS abundance) (log2 ratio); higher = more soluble. To be noted: cell cycle stage: G1/S.
The mark [5] stands for this setting: cell cycle stage: early G1 (4.5 h after nocodazole release).
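Throughout, for melting temperature (median over replicates), in situ: HeLa Kyoto cells synchronized by double thymidine or nocodazole block, proteins quantified by TMT10plex mass spectrometry, three independent biological replicates.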
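Throughout, for solubility change mitosis vs G1/S (difference of NP-40 vs SDS log2 ratios): synchronized HeLa Kyoto cells (double thymidine block for G1/S, nocodazole release for mitosis), protein amounts in NP-40 versus SDS lysates quantified by mass spectrometry, three biological replicates.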
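Throughout, for solubility in G1/S (NP-40 vs SDS abundance): HeLa Kyoto cells arrested at G1/S by double thymidine block, proteins quantified by TMT10plex mass spectrometry in mild NP-40 versus SDS extracts, three biological replicates.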
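Throughout, for thermal stability score vs G1/S (z-score of summed log2 fold changes over temperatures): synchronized HeLa Kyoto cells, proteins quantified by TMT10plex mass spectrometry, three biological replicates, mitosis taken 0.5 h after nocodazole release, G1/S directly after double thymidine block.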

“MELRVGNRYRLGRKIGSGSFGDIYLGTDIAAGEEVAIKLECVKTKHPQLHIESKIYKMMQGGVGIPTIRWCGAEGDYNVMVMELLGPSLEDLFNFCSRKFSLKTVLLLADQMISRIEYIHSKNFIHRDVKPDNFLMGLGKKGNLVYIIDFGLAKKYRDARTHQHIPYRENKNLTGTARYASINTHLGIEQSRRDDLESLGYVLMYFNLGSLPWQGLKAATKRQKYERISEKKMSTPIEVLCKGYPSEFATYLNFCRSLRFDDKPDYSYLRQLFRNLFHRQGFSYDYVFDWNMLKFGASRAADDAERERRDREERLRHSRNPATRGLPSTASGRLRGTQEVAPPTPLTPTSHTANTSPRPVSGMERERKVSMRLHRGAPVNISSSDLTGRQDTSRMSTSQIPGRVASSGLQSVVHR [CSNK1D]”: the “solubility change mitosis (log2)” value in data set [1] is -0.0573. Moreover, the thermal stability score is -0.73 in data set [2] (setting [5]) and -0.371 in data set [2] (cell cycle stage: mitosis). The melting temperature in data set [3] (cell cycle stage: G1/S) is 50.1 °C; in data set [3] (cell cycle stage: mitosis) it was 50.9 °C. In addition, the “solubility in G1/S (log2)” value in data set [4] was -0.067.

In the case of “MQRASRLKRELHMLATEPPPGITCWQDKDQMDDLRAQILGGANTPYEKGVFKLEVIIPERYPFEPPQIRFLTPIYHPNIDSAGRICLDVLKLPPKGAWRPSLNIATVLTSIQLLMSEPNPDDPLMADISSEFKYNKPAFLKNARQWTEKHARQKQKADEEEMLDNLPEAGDSRVHNSTQKRKASQLVGIEKKFHPDV [UBE2T]”, the “solubility change mitosis (log2)” value in data set [1] amounted to 0.118. For the same substance, the thermal stability score in data set [2] (setting [5]) is -0.273; in data set [2] (cell cycle stage: mitosis), -0.0505. Also, the melting temperature in data set [3] (cell cycle stage: G1/S) came out at 49.2 °C; in data set [3] (cell cycle stage: mitosis), 49.9 °C. Moreover, in data set [4], the “solubility in G1/S (log2)” value was 0.66.

With “MDELAGGGGGGPGMAAPPRQQQGPGGNLGLSPGGNGAAGGGGPPASEGAGPAAGPELSRPQQYTIPGILHYIQHEWARFEMERAHWEVERAELQARIAFLQGERKGQENLKKDLVRRIKMLEYALKQERAKYHKLKYGTELNQGDLKMPTFESEETKDTEAPTAPQNSQLTWKQGRQLLRQYLQEVGYTDTILDVRSQRVRSLLGLSNSEPNGSVETKNLEQILNGGESPKQKGQEIKRSSGDVLETFNFLENADDSDEDEENDMIEGIPEGKDKHRMNKHKIGNEGLAADLTDDPDTEEALKEFDFLVTAEDGEGAGEARSSGDGTEWDKDDLSPTAEVWDVDQGLISKLKEQYKKERKGKKGVKRANRTKLYDMIADLGDDELPHIPSGIINQSRSASTRMTDHEGARAEEAEPITFPSGGGKSFIMGSDDVLLSVLGLGDLADLTVTNDADYSYDLPANKDAFRKTWNPKYTLRSHFDGVRALAFHPVEPVLVTASEDHTLKLWNLQKTVPAKKSASLDVEPIYTFRAHIGPVLSLAISSNGEQCFSGGIDATIQWWNMPSPSVDPYDTYEPNVLAGTLVGHTDAVWGLAYSGIKNQLLSCSADGTVRLWNPQEKLPCICTYNGDKKHGIPTSVDFIGCDPAHMVTSFNTGSAVIYDLETSQSLVILSSQVDSGLQSNNHINRVVSHPTLPVTITAHEDRHIKFFDNKTGKMIHSMVAHLDAVTSLAVDPNGIYLMSGSHDCSIRLWNLDSKTCVQEITAHRKKLDESIYDVAFHSSKAYIASAGADALAKVFV [STRN3]”, the “solubility change mitosis (log2)” value in data set [1] is -0.0757. Further, the thermal stability score was -0.00707 in data set [2] (setting [5]) and -0.722 in data set [2] (cell cycle stage: mitosis). In addition, the melting temperature worked out at 52.1 °C in data set [3] (cell cycle stage: G1/S) and 52.4 °C in data set [3] (cell cycle stage: mitosis). In data set [4], the “solubility in G1/S (log2)” value is -0.0799.

For “MAASGESGTSGGGGSTEEAFMTFYSEVKQIEKRDSVLTSKNQIERLTRPGSSYFNLNPFEVLQIDPEVTDEEIKKRFRQLSILVHPDKNQDDADRAQKAFEAVDKAYKLLLDQEQKKRALDVIQAGKEYVEHTVKERKKQLKKEGKPTIVEEDDPELFKQAVYKQTMKLFAELEIKRKEREAKEMHERKRQREEEIEAQEKAKREREWQKNFEESRDGRVDSWRNFQANTKGKKEKKNRTFLRPPKVKMEQRE [DNAJC8]”, the “solubility change mitosis (log2)” value in data set [1] was 0.145. Further, the figures for the thermal stability score in data set [2] (setting [5]) and in data set [2] (cell cycle stage: mitosis) were 1.39 and 0.712, respectively. Besides, the figures for the melting temperature in data set [3] (cell cycle stage: G1/S) and in data set [3] (cell cycle stage: mitosis) were 50.1 °C and 51.5 °C, respectively. Further, in data set [4], the “solubility in G1/S (log2)” value turned out to be 0.748.

Consider “MGPRSRERRAGAVQNTNDSSALSKRSLAARGYVQDPFAALLVPGAARRAPLIHRGYYVRARAVRHCVRAFLEQIGAPQAALRAQILSLGAGFDSLYFRLKTAGRLARAAVWEVDFPDVARRKAERIGETPELCALTGPFERGEPASALCFESADYCILGLDLRQLQRVEEALGAAGLDAASPTLLLAEAVLTYLEPESAAALIAWAAQRFPNALFVVYEQMRPQDAFGQFMLQHFRQLNSPLHGLERFPDVEAQRRRFLQAGWTACGAVDMNEFYHCFLPAEERRRVENIEPFDEFEEWHLKCAHYFILAASRGDTLSHTLVFPSSEAFPRVNPASPSGVFPASVVSSEGQVPNLKRYGHASVFLSPDVILSAGGFGEQEGRHCRVSQFHLLSRDCDSEWKGSQIGSCGTGVQWDGRLYHTMTRLSESRVLVLGGRLSPVSPALGVLQLHFFKSEDNNTEDLKVTITKAGRKDDSTLCCWRHSTTEVSCQNQEYLFVYGGRSVVEPVLSDWHFLHVGTMAWVRIPVEGEVPEARHSHSACTWQGGALIAGGLGASEEPLNSVLFLRPISCGFLWESVDIQPPITPRYSHTAHVLNGKLLLVGGIWIHSSSFPGVTVINLTTGLSSEYQIDTTYVPWPLMLHNHTSILLPEEQQLLLLGGGGNCFSFGTYFNPHTVTLDLSSLSAGQ [LCMT2]”, for which, in data set [1], the “solubility change mitosis (log2)” value is -0.199. Further, the values for the thermal stability score in data set [2] (setting [5]) and in data set [2] (cell cycle stage: mitosis) were -0.211 and -0.346, respectively. The melting temperature in data set [3] (cell cycle stage: G1/S) came to 51.2 °C; in data set [3] (cell cycle stage: mitosis), 50.7 °C. Also, in data set [4], the “solubility in G1/S (log2)” value was -0.0889.

For DNAJB6, in data set [1], the “solubility change mitosis (log2)” value turned out to be 0.0684. Moreover, the thermal stability score was found to be 0.898 in data set [2] (setting [5]) and 1.65 in data set [2] (cell cycle stage: mitosis). Besides, the values for the melting temperature in data set [3] (cell cycle stage: G1/S) and in data set [3] (cell cycle stage: mitosis) were 52.8 °C and 49.8 °C, respectively. The “solubility in G1/S (log2)” value in data set [4] is -0.0238.

For DNAJC13, the “solubility change mitosis (log2)” value in data set [1] was -0.026. The thermal stability score was -0.329 in data set [2] (setting [5]) and -1.08 in data set [2] (cell cycle stage: mitosis). Moreover, the melting temperature is 50.8 °C in data set [3] (cell cycle stage: G1/S) and 50.3 °C in data set [3] (cell cycle stage: mitosis). The “solubility in G1/S (log2)” value in data set [4] was -0.463.
